Reference: publication PMC11910884 (The Innovation, 2025)

Molecular target: LgBiT-Npc1l1 expressed on OVA-Panc-02 cells (UniProt Q6T3U4 21-1333)
Assay: split reporter

Sequence of LgBiT-Npc1l1 expressed on OVA-Panc-02 cells (Q6T3U4 21-1333): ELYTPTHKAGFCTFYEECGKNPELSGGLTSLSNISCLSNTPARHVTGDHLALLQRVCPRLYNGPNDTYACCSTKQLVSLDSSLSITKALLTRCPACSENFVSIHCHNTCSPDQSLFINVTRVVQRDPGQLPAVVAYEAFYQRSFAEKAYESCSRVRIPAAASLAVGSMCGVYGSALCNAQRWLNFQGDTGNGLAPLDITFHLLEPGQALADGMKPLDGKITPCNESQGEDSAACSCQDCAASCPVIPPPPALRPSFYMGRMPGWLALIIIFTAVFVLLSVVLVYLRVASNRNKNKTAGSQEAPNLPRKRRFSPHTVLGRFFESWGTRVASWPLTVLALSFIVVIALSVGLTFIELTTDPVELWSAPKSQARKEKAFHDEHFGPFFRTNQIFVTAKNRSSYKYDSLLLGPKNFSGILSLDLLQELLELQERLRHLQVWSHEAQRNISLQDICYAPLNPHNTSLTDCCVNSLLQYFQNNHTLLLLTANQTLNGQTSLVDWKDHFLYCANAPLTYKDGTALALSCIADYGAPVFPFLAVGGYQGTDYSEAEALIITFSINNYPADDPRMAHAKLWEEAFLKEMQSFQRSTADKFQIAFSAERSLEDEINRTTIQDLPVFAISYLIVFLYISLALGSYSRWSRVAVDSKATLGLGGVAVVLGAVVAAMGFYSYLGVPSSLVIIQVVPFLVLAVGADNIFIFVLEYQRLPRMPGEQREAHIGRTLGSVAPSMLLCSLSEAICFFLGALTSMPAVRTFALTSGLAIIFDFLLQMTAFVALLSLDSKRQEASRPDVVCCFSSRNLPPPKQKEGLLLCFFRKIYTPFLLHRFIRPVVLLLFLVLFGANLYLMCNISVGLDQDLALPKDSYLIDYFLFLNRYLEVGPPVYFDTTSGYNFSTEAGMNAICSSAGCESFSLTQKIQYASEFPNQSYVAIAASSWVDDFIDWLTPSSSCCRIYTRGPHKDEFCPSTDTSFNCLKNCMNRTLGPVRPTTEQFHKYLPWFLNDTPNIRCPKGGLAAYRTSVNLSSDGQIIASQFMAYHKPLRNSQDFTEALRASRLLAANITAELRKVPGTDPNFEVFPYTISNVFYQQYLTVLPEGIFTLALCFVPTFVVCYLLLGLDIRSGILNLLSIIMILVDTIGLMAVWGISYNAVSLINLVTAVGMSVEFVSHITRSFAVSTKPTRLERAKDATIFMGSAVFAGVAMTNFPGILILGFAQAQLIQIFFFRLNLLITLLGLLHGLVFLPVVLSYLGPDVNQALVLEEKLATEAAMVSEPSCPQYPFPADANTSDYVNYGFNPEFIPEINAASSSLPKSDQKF

fold luminescence over the NanoBiT negative controls: 1000 fold
B1: SmBiT-Itgal (receptor)
chain: YNLDTRPTQSFLAQAGRHFGYQVLQIEDGVVVGAPGEGDNTGGLYHCRTSSEFCQPVSLHGSNHTSKYLGMTLATDAAKGSLLACDPGLSRTCDQNTYLSGLCYLFPQSLEGPMLQNRPAYQECMKGKVDLVFLFDGSQSLDRKDFEKILEFMKDVMRKLSNTSYQFAAVQFSTDCRTEFTFLDYVKQNKNPDVLLGSVQPMFLLTNTFRAINYVVAHVFKEESGARPDATKVLVIITDGEASDKGNISAAHDITRYIIGIGKHFVSVQKQKTLHIFASEPVEEFVKILDTFEKLKDLFTDLQRRIYAIEGTNRQDLTSFNMELSSSGISADLSKGHAVVGAVGAKDWAGGFLDLREDLQGATFVGQEPLTSDVRGGYLGYTVAWMTSRSSRPLLAAGAPRYQHVGQVLLFQAPEAGGRWNQTQKIEGTQIGSYFGGELCSVDLDQDGEAELLLIGAPLFFGEQRGGRVFTYQRRQSLFEMVSELQGDPGYPLGRFGAAITALTDINGDRLTDVAVGAPLEEQGAVYIFNGKPGGLSPQPSQRIQGAQVFPGIRWFGRSIHGVKDLGGDRLADVVVGAEGRVVVLSSRPVVDVVTELSFSPEEIPVHEVECSYSAREEQKHGVKLKACFRIKPLTPQFQGRLLANLSYTLQLDGHRMRSRGLFPDGSHELSGNTSITPDKSCLDFHFHFPICIQDLISPINVSLNFSLLEEEGTPRDQKVGRAMQPILRPSIHTVTKEIPFEKNCGEDKKCEANLTLSSPARSGPLRLMSSASLAVEWTLSNSGEDAYWVRLDLDFPRGLSFRKVEMLQPHSRMPVSCEELTEGSSLLTKTLKCNVSSPIFKAGQEVSLQVMFNTLLNSSWEDFVELNGTVHCENENSSLQEDNSAATHIPVLYPVNILTKEQENSTLYISFTPKGPKTQQVQHVYQVRIQPSAYDHNMPTLEALVGVPWPHSEDPITYTWSVQTDPLVTCHSEDLKRPSSEAEQPCLPGVQFRCPIVFRREILIQVTGTVELSKEIKASSTLSLCSSLSVSFNSSKHFHLYGSKASEAQVLVKVDLIHEKEMLHVYVLSGIGGLVLLFLIFLALYKVGFFKRNLKEKMEADGGVPNGSPPEDTDPLAVPGEETKDMGCLEPLRESDKD
